In the Human Domainome abundance scans (Beltran et al. 2025):
± gives the uncertainty stated by the source.

Test: abundance fitness (aPCA) (normalised: wild type 0, dead -1); higher = more abundant; growth selection in yeast, the domain comes from the species named
Settings: Homo sapiens
Substance “DnaJ homolog subfamily B member 1 D53L, P25685” has an abundance fitness of -0.058 ± 0.066.
“DnaJ homolog subfamily B member 1 D53M, P25685” gave an abundance fitness of -0.124 ± 0.09.
Work on “DnaJ homolog subfamily B member 1 D53N, P25685” yielded an abundance fitness of 0.035 ± 0.12.
With “DnaJ homolog subfamily B member 1 D53P, P25685” the abundance fitness was -0.709 ± 0.079.
“DnaJ homolog subfamily B member 1 D53Q, P25685” gave an abundance fitness of -0.279 ± 0.097.
“DnaJ homolog subfamily B member 1 D53R, P25685” showed an abundance fitness of -0.132 ± 0.14.
For “DnaJ homolog subfamily B member 1 D53T, P25685”, the abundance fitness was 0.032 ± 0.086.
With “DnaJ homolog subfamily B member 1 D53V, P25685” the abundance fitness was -0.013 ± 0.093.
For “DnaJ homolog subfamily B member 1 D53W, P25685”, the abundance fitness was -0.405 ± 0.12.
Substance “DnaJ homolog subfamily B member 1 D53Y, P25685” has an abundance fitness of -0.356 ± 0.077.
For “DnaJ homolog subfamily B member 1 D57A, P25685”, the abundance fitness was -0.269 ± 0.088.
In the case of “DnaJ homolog subfamily B member 1 D57C, P25685”, the abundance fitness is reported as -0.09 ± 0.098.
In the case of “DnaJ homolog subfamily B member 1 D57E, P25685”, the abundance fitness is reported as -0.269 ± 0.14.
Work on “DnaJ homolog subfamily B member 1 D57F, P25685” yielded an abundance fitness of -0.668 ± 0.17.
Substance “DnaJ homolog subfamily B member 1 D57G, P25685” has an abundance fitness of -0.298 ± 0.11.
In the case of “DnaJ homolog subfamily B member 1 D57I, P25685”, the abundance fitness is reported as -0.637 ± 0.22.
Substance “DnaJ homolog subfamily B member 1 D57K, P25685” has an abundance fitness of -0.123 ± 0.13.
Substance “DnaJ homolog subfamily B member 1 D57L, P25685” has an abundance fitness of -0.53 ± 0.061.
“DnaJ homolog subfamily B member 1 D57M, P25685” gave an abundance fitness of -0.366 ± 0.084.
“DnaJ homolog subfamily B member 1 D57N, P25685” gave an abundance fitness of -0.071 ± 0.29.
For “DnaJ homolog subfamily B member 1 D57P, P25685”, the abundance fitness was -0.715 ± 0.19.
In the case of “DnaJ homolog subfamily B member 1 D57R, P25685”, the abundance fitness is reported as -0.416 ± 0.072.
Substance “DnaJ homolog subfamily B member 1 D57S, P25685” has an abundance fitness of -0.097 ± 0.076.
“DnaJ homolog subfamily B member 1 D57T, P25685” gave an abundance fitness of -0.072 ± 0.089.
Substance “DnaJ homolog subfamily B member 1 D57V, P25685” has an abundance fitness of -0.317 ± 0.098.
Work on “DnaJ homolog subfamily B member 1 D57W, P25685” yielded an abundance fitness of -0.812 ± 0.2.
“DnaJ homolog subfamily B member 1 D57Y, P25685” gave an abundance fitness of -0.45 ± 0.11.
With “DnaJ homolog subfamily B member 1 D65A, P25685” the abundance fitness was -0.123 ± 0.078.
Substance “DnaJ homolog subfamily B member 1 D65E, P25685” has an abundance fitness of -0.152 ± 0.2.
“DnaJ homolog subfamily B member 1 D65F, P25685” showed an abundance fitness of -0.275 ± 0.18.
Substance “DnaJ homolog subfamily B member 1 D65G, P25685” has an abundance fitness of -0.197 ± 0.11.
With “DnaJ homolog subfamily B member 1 D65I, P25685” the abundance fitness was -0.387 ± 0.1.
Work on “DnaJ homolog subfamily B member 1 D65L, P25685” yielded an abundance fitness of -0.116 ± 0.085.
In the case of “DnaJ homolog subfamily B member 1 D65M, P25685”, the abundance fitness is reported as -0.162 ± 0.13.
With “DnaJ homolog subfamily B member 1 D65N, P25685” the abundance fitness was -0.222 ± 0.19.
Work on “DnaJ homolog subfamily B member 1 D65P, P25685” yielded an abundance fitness of -0.164 ± 0.11.
“DnaJ homolog subfamily B member 1 D65Q, P25685” gave an abundance fitness of -0.124 ± 0.11.
Substance “DnaJ homolog subfamily B member 1 D65R, P25685” has an abundance fitness of -0.163 ± 0.1.
Substance “DnaJ homolog subfamily B member 1 D65S, P25685” has an abundance fitness of -0.158 ± 0.18.
In the case of “DnaJ homolog subfamily B member 1 D65T, P25685”, the abundance fitness is reported as -0.228 ± 0.11.
Substance “DnaJ homolog subfamily B member 1 D65V, P25685” has an abundance fitness of -0.262 ± 0.1.
“DnaJ homolog subfamily B member 1 D65W, P25685” gave an abundance fitness of -0.358 ± 0.19.
“DnaJ homolog subfamily B member 1 D65Y, P25685” showed an abundance fitness of -0.261 ± 0.13.
Work on “DnaJ homolog subfamily B member 1 E18A, P25685” yielded an abundance fitness of -0.067 ± 0.074.
Work on “DnaJ homolog subfamily B member 1 E18D, P25685” yielded an abundance fitness of 0.034 ± 0.16.
Substance “DnaJ homolog subfamily B member 1 E18G, P25685” has an abundance fitness of -0.162 ± 0.066.
In the case of “DnaJ homolog subfamily B member 1 E18H, P25685”, the abundance fitness is reported as -0.066 ± 0.28.
Work on “DnaJ homolog subfamily B member 1 E18I, P25685” yielded an abundance fitness of -0.173 ± 0.14.
“DnaJ homolog subfamily B member 1 E18K, P25685” gave an abundance fitness of -0.205 ± 0.11.
For “DnaJ homolog subfamily B member 1 E18L, P25685”, the abundance fitness was -0.21 ± 0.071.
Substance “DnaJ homolog subfamily B member 1 E18M, P25685” has an abundance fitness of -0.188 ± 0.074.
In the case of “DnaJ homolog subfamily B member 1 E18N, P25685”, the abundance fitness is reported as -0.045 ± 0.18.
Work on “DnaJ homolog subfamily B member 1 E18Q, P25685” yielded an abundance fitness of -0.231 ± 0.083.
In the case of “DnaJ homolog subfamily B member 1 E18S, P25685”, the abundance fitness is reported as -0.093 ± 0.074.
With “DnaJ homolog subfamily B member 1 E18T, P25685” the abundance fitness was -0.081 ± 0.15.
For “DnaJ homolog subfamily B member 1 E18V, P25685”, the abundance fitness was -0.209 ± 0.061.
Substance “DnaJ homolog subfamily B member 1 E18W, P25685” has an abundance fitness of -0.268 ± 0.061.
With “DnaJ homolog subfamily B member 1 E19A, P25685” the abundance fitness was 0.022 ± 0.08.
“DnaJ homolog subfamily B member 1 E19C, P25685” gave an abundance fitness of -0.291 ± 0.12.
For “DnaJ homolog subfamily B member 1 E19D, P25685”, the abundance fitness was -0.089 ± 0.092.
“DnaJ homolog subfamily B member 1 E19F, P25685” showed an abundance fitness of -1.06 ± 0.08.
“DnaJ homolog subfamily B member 1 E19G, P25685” gave an abundance fitness of -0.539 ± 0.078.
With “DnaJ homolog subfamily B member 1 E19H, P25685” the abundance fitness was -0.363 ± 0.14.
“DnaJ homolog subfamily B member 1 E19I, P25685” gave an abundance fitness of -0.659 ± 0.12.
With “DnaJ homolog subfamily B member 1 E19K, P25685” the abundance fitness was -0.396 ± 0.099.
Substance “DnaJ homolog subfamily B member 1 E19L, P25685” has an abundance fitness of -0.32 ± 0.069.
“DnaJ homolog subfamily B member 1 E19M, P25685” gave an abundance fitness of -0.199 ± 0.1.
“DnaJ homolog subfamily B member 1 E19N, P25685” gave an abundance fitness of -0.273 ± 0.11.
Substance “DnaJ homolog subfamily B member 1 E19P, P25685” has an abundance fitness of -1.29 ± 0.11.
With “DnaJ homolog subfamily B member 1 E19Q, P25685” the abundance fitness was 0.118 ± 0.12.
With “DnaJ homolog subfamily B member 1 E19R, P25685” the abundance fitness was -0.452 ± 0.083.
Work on “DnaJ homolog subfamily B member 1 E19S, P25685” yielded an abundance fitness of -0.18 ± 0.069.
For “DnaJ homolog subfamily B member 1 E19T, P25685”, the abundance fitness was -0.36 ± 0.073.
“DnaJ homolog subfamily B member 1 E19V, P25685” gave an abundance fitness of -0.491 ± 0.093.
